Measured values taken from publication PMC3539426, “Crystal Structure of a 9-Subunit Archaeal Exosome in Pre-Catalytic States of the Phosphorolytic Reaction” (Archaea, 2012).

T1: Rrp42 (S. solfataricus exosome RNase PH subunit) (S. solfataricus, UniProt Q9UXC0 1-275)
T1 construct: Rrp42, RNase PH subunit of the Sulfolobus solfataricus exosome; Three copies stand in the 9-subunit complex; source: E. coli, recombinantly expressed, purified
T1 sequence: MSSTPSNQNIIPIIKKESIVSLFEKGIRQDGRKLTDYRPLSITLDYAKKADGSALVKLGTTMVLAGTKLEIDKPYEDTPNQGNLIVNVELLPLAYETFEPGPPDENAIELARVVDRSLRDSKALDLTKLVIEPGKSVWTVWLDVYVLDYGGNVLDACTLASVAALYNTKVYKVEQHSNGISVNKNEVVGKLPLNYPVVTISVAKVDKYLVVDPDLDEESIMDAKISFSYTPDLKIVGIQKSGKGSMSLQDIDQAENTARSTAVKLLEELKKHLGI

B1: Rrp41^D182A (S. solfataricus exosome RNase PH subunit Rrp41 with the D182A point mutation) (enzyme)
chain: MREMLQVERPKLILDDGKRTDGRKPDELRSIKIELGVLKNADGSAIFEMGNTKAIAAVYGPKEMHPRHLSLPDRAVLRVRYHMTPFSTDERKNPAPSRREIELSKVIREALESAVLVELFPRTAIDVFTEILQADAGSRLVSLMAASLALADAGIPMRDLIAGVAVGKADGVIILDLNETEAMWGEADMPIAMMPSLNQVTLFQLNGSMTPDEFRQAFDLAVKGINIIYNLEREALKSKYVEFKEEGV
notes: Rrp41, RNase PH subunit of the Sulfolobus solfataricus exosome, with D182A; Three copies stand in the 9-subunit complex 3*(Rrp41/Rrp42/Rrp4); the construct is not described here; source: E. coli, recombinantly expressed, purified
B2: Rrp4 (S. solfataricus exosome RNA binding protein) (natural protein)
chain: MNMSQSQKIVLQPRSIVVPGELLAEGEFQIPWSPYILKINSKYYSTVVGLFDVKDTQFEVIPLEGSFYYPKINDIVIGLVEDVEIYGWVVDIKAPYKAYLPASNLLGRSINVGEDLRRYLDVGDYVIARIENFDRSIDPVLSVKGKDLGRVSNGIVIDIMPVKVPRVIGKNKSMYETLTSKSGCSIFVANNGRIWATCPSRFSEEILIEAIRKIENESHIKGLTDRIKQFIEEKLGERNASSGETKTNS
notes: Three copies stand in the 9-subunit complex; source: E. coli, recombinantly expressed, purified

How the values were obtained:
[1] = biological target: S. solfataricus exosome, nonameric 3*(Rrp41/Rrp42/Rrp4) complex (Saccharolobus solfataricus, UniProt Q9UXC2, D182A); settings: 1.8 Å Pi-bound structure (4ba1), 10 mM Pi soak with 1 mM 7mer poly(A) RNA, RNA not visible; also 2.5 Å structure with RNA and Pi (4ba2); Rrp41 active site R99, G137, S138, R139; catalytically inactive
[2] = biological target: B2; assay: crystal structure; Rrp4/Rrp41^D182A/Rrp42 crystals, space group P213, one copy of each subunit in the asymmetric unit; soaked with 7 mer poly(A) RNA and Pi; 1.8 Å (Pi bound) and 2.5 Å (RNA and Pi bound); settings: both partners purified
[3] = biological target: T1, Rrp42 (S. solfataricus exosome RNase PH …); assay: as above; settings: both partners purified

Molecule	X-ray crystal structure, crystal soaking [1]	binding result [2]	binding result [3]
O=P(O)(O)O [Pi, inorganic phosphate]	the Pi ion is bound by four residues from the Rrp41 subunit	–	–
B1	–	binds	binds
B2	–	–	binds
